Values of other authors as cited in article PMC10359924.
Read-outs that look alike come from different tables or passages of the source.

How the values were obtained:
[1] = target: IL-4Rα (Homo sapiens) (UniProt P24394)
[2] = target: IL-4Rα (Homo sapiens) (UniProt P24394); remark: listed apart in the source
[3] = target: IL-13Rα1 (Homo sapiens) (UniProt P78552)
[4] = target: γc (Homo sapiens) (UniProt P31785)
[5] = target: IL-13Rα1 (Homo sapiens) (UniProt P78552); remark: listed apart in the source

Sequence of IL-4/IL-4Rα complex (P05112 25-153): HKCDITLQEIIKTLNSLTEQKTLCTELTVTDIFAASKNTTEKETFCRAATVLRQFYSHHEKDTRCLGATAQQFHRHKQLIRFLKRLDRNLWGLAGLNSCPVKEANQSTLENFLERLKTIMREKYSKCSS
Sequence of IL-4/IL-4Rα complex (P24394 26-232, further chain): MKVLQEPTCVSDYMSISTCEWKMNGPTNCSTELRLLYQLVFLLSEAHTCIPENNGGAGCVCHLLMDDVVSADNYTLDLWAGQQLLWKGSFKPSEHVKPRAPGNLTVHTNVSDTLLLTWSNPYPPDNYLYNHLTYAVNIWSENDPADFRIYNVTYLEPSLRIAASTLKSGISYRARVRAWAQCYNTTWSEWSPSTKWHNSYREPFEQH
Sequence of IL-4Rα (Homo sapiens) (P24394 26-232): as the sequence (P24394 26-232, further chain) above
Sequence of IL-13Rα1 (Homo sapiens) (P78552 22-343): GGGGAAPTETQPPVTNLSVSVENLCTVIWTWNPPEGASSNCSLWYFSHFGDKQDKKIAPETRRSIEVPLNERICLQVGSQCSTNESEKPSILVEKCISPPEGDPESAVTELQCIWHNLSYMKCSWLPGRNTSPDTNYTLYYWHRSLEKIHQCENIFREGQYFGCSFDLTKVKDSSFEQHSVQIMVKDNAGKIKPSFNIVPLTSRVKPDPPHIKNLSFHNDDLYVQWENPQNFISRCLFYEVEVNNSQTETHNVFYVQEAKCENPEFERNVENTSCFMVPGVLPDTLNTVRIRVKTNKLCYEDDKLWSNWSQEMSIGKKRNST
Sequence of IL-13/IL-13Rα1 complex (P35225 25-146): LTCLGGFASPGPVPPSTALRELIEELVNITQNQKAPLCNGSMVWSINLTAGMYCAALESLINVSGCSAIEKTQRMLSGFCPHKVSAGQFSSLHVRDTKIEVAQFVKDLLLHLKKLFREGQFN
Sequence of IL-13/IL-13Rα1 complex (P78552 22-343, further chain): as the sequence (P78552 22-343) above
Sequence of IL-13 (P35225 25-146): as the sequence (P35225 25-146) above
Sequence of IL-4 (P05112 25-153): as the sequence (P05112 25-153) above
Sequence of γc (Homo sapiens) (P31785 23-262): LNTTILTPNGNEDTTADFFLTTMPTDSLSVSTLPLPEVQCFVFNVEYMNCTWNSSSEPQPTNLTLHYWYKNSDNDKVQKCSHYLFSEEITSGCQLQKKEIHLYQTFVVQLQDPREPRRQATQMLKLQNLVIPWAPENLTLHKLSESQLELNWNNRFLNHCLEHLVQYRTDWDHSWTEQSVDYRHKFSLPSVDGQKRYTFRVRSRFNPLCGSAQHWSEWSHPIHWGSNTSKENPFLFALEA

In the case of “IL-13/IL-13Rα1 complex (from UniProt P35225)”, the Kd [1] is listed as 20 nM.
For IL-4 (from UniProt P05112), the Kd [2] is listed as 1 nM.
In the case of IL-13 (from UniProt P35225), the Kd [3] is given as 30 nM.
In the case of “IL-4/IL-4Rα complex (from UniProt P05112)”, the Kd [4] is listed as 559 nM and the Kd [5] is listed as 487 nM.
